Measured values published in US10479836B2, “Method for treating pulmonary hypertension with interleukin-5 receptor antibody” (University of Toyama, priority 2015, dated 2019).

T1: mouse FcγRI (Mus musculus, UniProt P26151)
T1 construct: purchased R&D Systems, Inc
T1 sequence (P26151 25-404): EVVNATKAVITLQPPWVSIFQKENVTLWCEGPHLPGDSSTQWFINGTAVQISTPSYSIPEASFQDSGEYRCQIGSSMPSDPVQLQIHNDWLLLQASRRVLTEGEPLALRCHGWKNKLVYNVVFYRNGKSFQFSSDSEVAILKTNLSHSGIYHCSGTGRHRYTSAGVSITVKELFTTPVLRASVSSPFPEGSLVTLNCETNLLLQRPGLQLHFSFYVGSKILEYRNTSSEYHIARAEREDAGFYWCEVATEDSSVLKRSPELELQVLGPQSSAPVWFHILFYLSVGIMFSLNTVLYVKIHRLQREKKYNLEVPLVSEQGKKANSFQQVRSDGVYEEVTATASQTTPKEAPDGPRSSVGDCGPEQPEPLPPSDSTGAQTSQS

T2: mouse FcγRIIb (Mus musculus, UniProt P08101)
T2 construct: purchased R&D Systems, Inc
T2 sequence (P08101 30-330): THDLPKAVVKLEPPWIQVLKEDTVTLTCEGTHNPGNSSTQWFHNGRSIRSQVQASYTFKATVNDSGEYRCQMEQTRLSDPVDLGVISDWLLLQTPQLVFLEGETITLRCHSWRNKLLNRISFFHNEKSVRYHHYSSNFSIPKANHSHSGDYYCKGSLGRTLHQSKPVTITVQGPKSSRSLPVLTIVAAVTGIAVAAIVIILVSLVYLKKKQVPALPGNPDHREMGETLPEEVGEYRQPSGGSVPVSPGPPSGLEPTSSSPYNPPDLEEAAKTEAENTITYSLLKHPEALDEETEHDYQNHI

T3: mouse FcγRIII (Mus musculus, UniProt P08508)
T3 construct: purchased R&D Systems, Inc
T3 sequence (P08508 31-261): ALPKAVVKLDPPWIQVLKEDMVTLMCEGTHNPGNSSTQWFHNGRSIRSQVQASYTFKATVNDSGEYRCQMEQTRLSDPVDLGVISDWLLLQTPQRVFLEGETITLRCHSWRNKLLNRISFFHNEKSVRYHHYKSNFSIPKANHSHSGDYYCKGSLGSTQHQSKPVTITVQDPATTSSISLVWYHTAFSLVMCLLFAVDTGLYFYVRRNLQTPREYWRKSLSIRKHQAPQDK

T4: mouse FcγRIV (Mus musculus, UniProt A0A0B4J1G0)
T4 construct: purchased R&D Systems, Inc
T4 sequence (A0A0B4J1G0 21-249): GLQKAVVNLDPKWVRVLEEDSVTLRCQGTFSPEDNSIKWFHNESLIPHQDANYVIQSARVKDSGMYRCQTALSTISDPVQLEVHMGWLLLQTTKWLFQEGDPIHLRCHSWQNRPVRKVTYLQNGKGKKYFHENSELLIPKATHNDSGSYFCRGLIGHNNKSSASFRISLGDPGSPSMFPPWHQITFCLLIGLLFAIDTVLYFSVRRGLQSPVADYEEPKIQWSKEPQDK


What was measured:
[1] = tested on: rIL-33-induced pulmonary vascular wall thickening; test: rIL-33-induced pulmonary arterial wall thickening, Heath-Edwards grading of lung tissue; type: in vivo, mouse; conditions: IL-5+/+ mice given rIL-33; intrabronchial administration on days 7 and 14; compared with PBS group; FIG. 8
Experimental: Therefore, the degree of vascular wall thickening in IL-5^+/+ mice and IL-5^V/V mice was quantitatively graded on the basis of the Heath-Edwards grading system. On days 0, 7, and 14, 400 ng of rIL-33 was administered to each mouse. On day 21, lung tissues were resected and subjected to pathological observation to conduct tissue classification on the basis of the Heath-Edwards grading system.
In this grading system, evaluation was carried out according to grade 1: medial thickening, grade 2: intimal thickening, grade 3: advanced intimal thickening and medial thickening, and grade 4; plexiform lesion in addition to advanced intimal thickening and medial thickening.
In an experimental system similar to that of Example 3, in order to confirm the inhibitory effect of an anti-IL-5 neutralizing antibody on intimal thickening and medial thickening, 100 μg of an anti-IL-5 rat monoclonal antibody (NC17) (Hitoshi et al., Int. Immunol., 1991; 3; 135-139) or a rat IgG control antibody (manufactured by Sigma-Aldrich Co., LLC) was intraperitoneally administered to each IL-5^+/+ mouse for 3 consecutive days (a total of 3 times) from two days before rIL-33 administration day. Then, on day 21, lung tissues were resected and subjected to pathological observation to conduct tissue classification on the basis of the Heath-Edwards grading system. […]

[2] = tested on: mouse IL-5Rα-expressing cell Y16; test: Antigen binding activity of chimeric antibodies on Y16 cells by FCM; type: cell-based; conditions: 0.6-10000 ng/mL antibody, 4° C. 60 min; FIG. 12
Experimental: The chimeric antibodies prepared in Example 8 were evaluated for their antigen binding activity using a mouse-derived cell line Y16 expressing IL-5R. The Y16 cells were washed with SM (staining medium containing 2% FCS, 0.05% NaN3, and 1 mM EDTA in PBS). Then, Mouse BD Fc Block (manufactured by Becton, Dickinson and Company) was added thereto at a concentration of 5 μg/mL, and the mixture was left standing at 4° C. for 30 min. The cells were inoculated at a cell number of 1×10^5 cells/well to a 96-well U-bottom plate, and each chimeric antibody adjusted to a final concentration of 10000, 2500, 625, 156, 39, 10, 2.4, or 0.6 ng/mL was added thereto, followed by reaction at 4° C. for 60 min. The rat/human chimeric control antibodies used were rtDNP-1 hIgG1 (DF) antibody (KM8808) and rtDNP-1 hIgG1 (N297A) antibody (KM6161). The nucleotide sequences and amino acid sequences of the variable regions of each isotype control antibody are shown in SEQ ID NOs: 29 to 34. After washing of the cells with SM, Goat F(ab′)2 Anti-Human IgG PE (γ chain specific) (manufactured by Southern Biotech) diluted 500-fold with SM was added thereto, followed by reaction at 4° C. for 60 min. After washing of the cells with SM, the cells were resuspended in 50 μL of SM. Fluorescence intensity was measured by FCM (flow cytometer FACS Canto II (manufactured by Becton, Dickinson and Company)). The data was analyzed using FlowJo 7.65 (manufactured by Tomy Digital Biology Co., Ltd.) to calculate a Geomean value at each concentration.

mouse FcγRI = target: T1, mouse FcγRI; test: Biacore steady state affinity for mouse FcγRI; type: binding; conditions: Biacore T-200, Steady State Affinity mode
Experimental: (§1) The various H7 chimeric antibodies prepared in Example 8 and the parent antibody H7 rat IgG2a-type antibody were evaluated for their affinity for mouse FcγR using Biacore T-200 (manufactured by GE Healthcare Japan Corp.). An anti-tetra His mouse antibody (manufactured by Qiagen N.V.) was immobilized with 8000 RU as a guideline onto CM5 sensor chip using an amine coupling kit (all manufactured by GE Healthcare Japan Corp.). The coupling buffer used was 10 mM sodium acetate (pH 4.5). His tag-fused mouse FcγRI, IIb, III, and IV proteins (all manufactured by R&D Systems, Inc.) each dissolved at 2 μg/mL in HBS-EP(+) were captured as ligands at 2 μL/min for 30 sec. Then, each antibody serially diluted into concentrations of […] was added thereto as an analyte by the multicycle method. The flow rate was 5 μL/min, and the contact time and the dissociation time were both set to a condition of 240 sec. The analysis was carried out using Biacore T200 Evaluation software on the Steady State Affinity mode. A rise in binding activity against FcγRI and FcγRIV involved in in vivo mouse effector activity was observed by the alteration of the H7 constant region from rat IgG2a type to hIgG1 type.

mouse FcγRIIb = target: T2, mouse FcγRIIb; test: Biacore steady state affinity for mouse FcγRIIb; type: binding; conditions: Biacore T-200, Steady State Affinity mode
Experimental: as §1

mouse FcγRIII = target: T3, mouse FcγRIII; test: Biacore steady state affinity for mouse FcγRIII; type: binding; conditions: Biacore T-200, Steady State Affinity mode
Experimental: as §1

mouse FcγRIV = target: T4, mouse FcγRIV; test: Biacore steady state affinity for mouse FcγRIV; type: binding; conditions: Biacore T-200, Steady State Affinity mode
Experimental: as §1

Y16 cells = test: ADCC activity against Y16 cells with human PBMC effector cells (LDH release); type: cell-based, mouse; conditions: 4 hrs, 0.0001-1000 ng/mL (control antibodies 1000 ng/mL), FIG. 13
Experimental: The H7 recombinant chimeric antibodies prepared in Example 8 were evaluated for their ADCC activity against Y16 cells using frozen human peripheral blood mononuclear cells (PBMCs) (manufactured by AllCells) as effector cells. The frozen human PBMCs were shake-cultured (37° C., 5% CO2, overnight) in RPMI1640 medium containing 5% FBS. The Y16 cells (target cells) and the human PBMCs (effector cells) were washed with ADCC assay medium (RPIM1640 containing 5% dialyzed FBS) and adjusted to cell densities of 2×10^5 cells/mL and 3×10^6 cells/mL, respectively. The cells were washed twice with a medium and then suspended into cell densities of 4×10^5 cells/mL. Each chimeric antibody adjusted to a final concentration of 0.0001, 0.001, 0.01, 0.1, 1, 10, 100, or 1000 ng/mL, the target cells (2×10^4 cells/well), and the effector cells (5×10^5 cells/well) were added in this order at 50 μL/well to a 96-well U-bottom plate. The control antibodies used were the rtDNP-1 hIgG1 (DF) antibody (KM8808) and the rtDNP-1 hIgG1 (N297A) antibody (KM6161) of Example 10 adjusted to a final concentration of 1000 ng/mL. The plate was centrifuged (500 rpm, 5 min) and then left standing in an incubator (37° C., 5% CO2, 4 hrs). The plate was centrifuged (1500 rpm, 5 min) to recover a supernatant at 50 μL/well into a 96-well Flat-bottom plate (manufactured by Sumitomo Bakelite Co., Ltd.). Lactate dehydrogenase (LDH) activity in the supernatant was detected using CytoTox 96 Non-Radioactive Cytotoxicity Assay (manufactured by Promega Corp.). Absorbance at 490 nm was measured using a plate reader SPECTRA MAX 340 PC384 (manufactured by Molecular Devices, LLC). The ADCC activity (%) was calculated according to the following equation using background-corrected measurement values. Cytotoxicity=[[Absorbance of the sample]−[Absorbance derived from spontaneous release from the target cells and the effector cells]]/[[Absorbance derived from total release from the target cells]−[Absorbance derived from spontaneous release from the target cells]]

| Molecule | Kd (mouse FcγRI) [nM] | Affinity KD for mouse FcγRIIb (mouse FcγRIIb) | Affinity KD for mouse FcγRIII (mouse FcγRIII) | Kd (mouse FcγRIV) [nM] | Affinity KD for mouse FcγRI (mouse FcγRI) | Affinity KD for mouse FcγRIV (mouse FcγRIV) | pulmonary vascular wall thickening (histological scores, Heath-Edwards grading) [1] | antigen binding activity (fluorescence intensity, Geomean) on Y16 cells [2] | ADCC activity against Y16 cells (Y16 cells) |
| --- | --- | --- | --- | --- | --- | --- | --- | --- | --- |
| CC#CCC(C)[C@H](O)/C=C/[C@@H]1[C@H]2C/C(=C/CCCC(=O)O)C[C@H]2C[C@H]1O (some centres unmarked) [iloprost] |  |  |  |  |  |  | evident decrease in pulmonary vascular wall thickening was observed |  |  |
| H7 ratIgG2a: parent anti-IL-5R rat monoclonal antibody H7, rat IgG2a type (Hitoshi et al.) (antibody, V domains shown) VH: EVQLQQSGAELGKPGTSVKLSCKVSGYNIKNTYIHWVNQRPGKGLEWIGRIDPANGNPIYAEKFKNKATLTADTSSNTAYMQLSQLKSDDTAIYFCAMHRGHSMGPGPYVMDAWGQGASVTVSS VL: DIQMTQSPASLSASLGETVTIECRTSEDIYNGLAWYQQKPGKSPQLLIYNANSLHTGVPSRFSGSGSGTQYSLKINSLQSEDVASYCCQQYSNYPFTFGSGTKLEIK |  | no binding | no binding |  | very weak | very weak |  |  |  |

Further lines, with some results ahead:

| Kd (mouse FcγRI) [nM] | Affinity KD for mouse FcγRIIb (mouse FcγRIIb) | Affinity KD for mouse FcγRIII (mouse FcγRIII) | Kd (mouse FcγRIV) [nM] | Affinity KD for mouse FcγRI (mouse FcγRI) | Affinity KD for mouse FcγRIV (mouse FcγRIV) | Molecule | pulmonary vascular wall thickening (histological scores, Heath-Edwards grading) [1] | antigen binding activity (fluorescence intensity, Geomean) on Y16 cells [2] | ADCC activity against Y16 cells (Y16 cells) |
| --- | --- | --- | --- | --- | --- | --- | --- | --- | --- |
| 137 | no binding | no binding | 89.5 |  |  | H7-1: core fucose-deficient rat/human chimeric antibody of anti-IL-5R rat monoclonal antibody H7, human IgG1 constant region (antibody, V domains shown) VH: EVQLQQSGAELGKPGTSVKLSCKVSGYNIKNTYIHWVNQRPGKGLEWIGRIDPANGNPIYAEKFKNKATLTADTSSNTAYMQLSQLKSDDTAIYFCAMHRGHSMGPGPYVMDAWGQGASVTVSS VL: DIQMTQSPASLSASLGETVTIECRTSEDIYNGLAWYQQKPGKSPQLLIYNANSLHTGVPSRFSGSGSGTQYSLKINSLQSEDVASYCCQQYSNYPFTFGSGTKLEIK |  | confirmed to react equivalently | exhibited antibody concentration-dependent ADCC activity |
|  | no binding | no binding |  | very weak | no binding | H7-3: N-linked sugar chain-deficient H7 chimeric antibody, human IgG1 (N297A), lacking ADCC activity (antibody, V domains shown) VH: EVQLQQSGAELGKPGTSVKLSCKVSGYNIKNTYIHWVNQRPGKGLEWIGRIDPANGNPIYAEKFKNKATLTADTSSNTAYMQLSQLKSDDTAIYFCAMHRGHSMGPGPYVMDAWGQGASVTVSS VL: DIQMTQSPASLSASLGETVTIECRTSEDIYNGLAWYQQKPGKSPQLLIYNANSLHTGVPSRFSGSGSGTQYSLKINSLQSEDVASYCCQQYSNYPFTFGSGTKLEIK |  | confirmed to react equivalently | none |
